According to publication PMC10942467 (bioRxiv, 2024):

Target: 6X His-Raf1 (purified recombinant) (UniProt P04049 1-648, fluorescent label in the MST (kind and site not stated))
Assay: MST

B1: GLS (purified recombinant) (enzyme)
chain: HPWWGGGGWPAEPLARGLSSSPSEILQELGKGSTHPQPGVSPPAAPAAPGPKDGPGETDAFGNSEGKELVASGENKIKQGLLPSLEDLLFYTIAEGQEKIPVHKFITALKSTGLRTSDPRLKECMDMLRLTLQTTSDGVMLDKDLFKKCVQSNIVLLTQAFRRKFVIPDFMSFTSHIDELYESAKKQSGGKVADYIPQLAKFSPDLWGVSVCTVDGQRHSTGDTKVPFCLQSCVKPLKYAIAVNDLGTEYVHRYVGKEPSGLRFNKLFLNEDDKPHNPMVNAGAIVVTSLIKQGVNNAEKFDYVMQFLNKMAGNEYVGFSNATFQSERESGDRNFAIGYYLKEKKCFPEGTDMVGILDFYFQLCSIEVTCESASVMAATLANGGFCPITGERVLSPEAVRNTLSLMHSCGMYDFSGQFAFHVGLPAKSGVAGGILLVVPNVMGMMCWSPPLDKMGNSVKGIHFCHDLVSLCNFHNYDNLRHFAKKLDPRREGGDQRVKSVINLLFAAYTGDVSALRRFALSAMDMEQRDYDSRTALHVAAAEGHVEVVKFLLEACKVNPFPKDRWNNTPMDEALHFGHHDVFKILQEYQVQYTPQGDSDNGKENQTVHKNLDGLL
Kd: 183 nM
